Measurements as given in patent US20160009798A1.

Assays:
[1] = biological target: human oncostatin M (OSM), in-house recombinant, mammalian-cell derived (human) (UniProt P13725); experiment: SPR competition, human OSM captured on immobilized M55 (competitor), sample injected at 300 nM, second chip
[2] = biological target: human oncostatin M (OSM), in-house recombinant, mammalian-cell derived (human) (UniProt P13725); experiment: SPR competition, human OSM captured on immobilized M64 (competitor), sample injected at 300 nM, second chip
[3] = biological target: human oncostatin M (OSM), in-house recombinant, mammalian-cell derived (human) (UniProt P13725); experiment: SPR competition, human OSM captured on immobilized M54 (competitor), sample injected at 300 nM
[4] = biological target: human oncostatin M (OSM), in-house recombinant, mammalian-cell derived (human) (UniProt P13725); experiment: SPR (Biacore 3000), mAb captured by anti-Fc, OSM as analyte
[5] = biological target: Cynomolgus monkey (Macaca fascicularis) oncostatin M, in-house recombinant (Cynomolgus monkey (Macaca fascicularis)); experiment: as above
Chain of Cynomolgus monkey (Macaca fascicularis) oncostatin M, in-house recombinant (Cynomolgus monkey (Macaca fascicularis)) (P13725 other isoform, or with tags, fused parts or gaps limits assumed): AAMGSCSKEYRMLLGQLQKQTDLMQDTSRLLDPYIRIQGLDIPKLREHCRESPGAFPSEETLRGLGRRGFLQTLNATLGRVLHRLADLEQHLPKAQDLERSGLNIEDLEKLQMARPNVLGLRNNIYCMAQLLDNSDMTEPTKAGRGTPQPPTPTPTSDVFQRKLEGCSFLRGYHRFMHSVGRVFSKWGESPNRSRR

[6] = biological target: human oncostatin M (OSM), in-house recombinant, mammalian-cell derived (human) (UniProt P13725); experiment: SPR competition, human OSM captured on immobilized M2 (competitor), sample injected at 300 nM, second chip
[7] = biological target: human oncostatin M (OSM), in-house recombinant, mammalian-cell derived (human) (UniProt P13725); experiment: SPR competition, human OSM captured on immobilized M69 (competitor), sample injected at 300 nM
[8] = biological target: human oncostatin M (OSM), in-house recombinant, mammalian-cell derived (human) (UniProt P13725); experiment: SPR competition, human OSM captured on immobilized M71 (competitor), sample injected at 300 nM
[9] = biological target: human oncostatin M (OSM), in-house recombinant, mammalian-cell derived (human) (UniProt P13725); experiment: cell-based or functional assay
[10] = biological target: human oncostatin M (OSM), in-house recombinant, mammalian-cell derived (human) (UniProt P13725); experiment: SPR competition, human OSM captured on immobilized M2 (competitor), sample injected at 300 nM

Chain of human oncostatin M (OSM), in-house recombinant, mammalian-cell derived (human) (P13725 26-221 limits assumed): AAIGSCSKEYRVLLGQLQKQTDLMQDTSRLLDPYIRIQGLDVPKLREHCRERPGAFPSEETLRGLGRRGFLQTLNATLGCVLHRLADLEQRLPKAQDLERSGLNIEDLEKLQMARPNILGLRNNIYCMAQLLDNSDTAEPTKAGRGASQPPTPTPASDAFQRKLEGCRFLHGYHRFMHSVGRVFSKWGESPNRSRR

Substance: MAB295 (R&D Systems) (antibody)
- Binding Level (RU) [1]: 2950 RU
- Binding Level (RU) [2]: 1950 RU
- Binding Level (RU) [3]: 2900 RU
- Kd [4]: 1.85 nM
- koff [4]: 0.00217 s⁻¹
- kon [4]: 1.18e+06 M⁻¹ s⁻¹
- KD ratio Cyno/Human [5]: 10.7
- Kd [5]: 19.8 nM
- koff [5]: 0.0141 s⁻¹
- kon [5]: 710000 M⁻¹ s⁻¹
- Binding Level (RU) [6]: -80 RU
- Binding Level (RU) [7]: 2390 RU
- Binding Level (RU) [8]: 1990 RU
- EC50, pSTAT3 inhibition in A375 cells with 5 ng/ml hOSM [9]: 72.1 ng/ml
- Binding Level (RU) [10]: -83 RU
